Residue numbers refer to the chain shown, from its start. One block for each binder: values may come before it.
Columns and labels:
[1] = target: T1, Fhm, hTL1A(Q167R), soluble, E. coli-expressed, residues 72-251 of SEQ ID NO:246 (human, UniProt O95150 72-251); test: SPR 25C, mAb captured
T1 construct: with or without N-terminal Met
T1 chain: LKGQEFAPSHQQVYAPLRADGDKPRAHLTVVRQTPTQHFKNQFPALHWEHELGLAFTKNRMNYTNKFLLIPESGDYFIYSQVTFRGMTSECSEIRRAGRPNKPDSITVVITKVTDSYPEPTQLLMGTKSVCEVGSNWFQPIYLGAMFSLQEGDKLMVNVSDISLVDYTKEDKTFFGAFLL
Method in brief: (§1)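 Biacore T100 SPR with captured mAb and soluble TL1A/Fhm analyte; ka and kd fitted to a 1:1 model assuming monomeric TL1A. KD = kd/ka; t1/2 (min) = ln2/(60·kd).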

[2] = target: T2, cynomolgus monkey TL1A, soluble, E. coli-expressed, residues 72-251 of SEQ ID NO:248 (cynomolgus monkey (Macaca fascicularis), UniProt O95150 72-251 (human entry)); test: SPR 25C, mAb captured
T2 construct: with or without N-terminal Met; also called MfTL1A (E. Coli)
T2 chain: T1 chain with F39L, I78V, R96Q
Method in brief: as §1

[3] = target: T3, rat TL1A, soluble, CHO-expressed, residues 76-252 of SEQ ID NO:258 with N-terminal His6-tag (rat, UniProt Q8K3Y7 76-252); test: SPR 37C, mAb captured
T3 construct: also called rTL1A; rTL1A (CHO)
T3 sequence: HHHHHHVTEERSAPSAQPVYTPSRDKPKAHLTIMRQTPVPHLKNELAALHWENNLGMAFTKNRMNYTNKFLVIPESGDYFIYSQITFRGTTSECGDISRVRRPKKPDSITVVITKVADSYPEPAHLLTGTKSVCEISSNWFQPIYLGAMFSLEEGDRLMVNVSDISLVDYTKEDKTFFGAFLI
Method in brief: as §1

[4] = target: T4, mouse TL1A, soluble, E. coli-expressed, residues 76-252 of SEQ ID NO:250 (mouse, UniProt Q5UBV8 76-252); test: SPR 25C, steady state
T4 construct: with or without N-terminal Met; also called mTL1A (E. Coli)
T4 sequence: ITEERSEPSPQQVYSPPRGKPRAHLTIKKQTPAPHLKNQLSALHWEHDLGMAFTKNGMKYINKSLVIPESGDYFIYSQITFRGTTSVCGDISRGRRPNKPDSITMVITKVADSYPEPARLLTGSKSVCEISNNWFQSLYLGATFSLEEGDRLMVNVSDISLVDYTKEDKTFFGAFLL
Method in brief: as §1

[5] = target: T5, Fhm, hTL1A(Q167R), soluble, CHO-expressed, residues 72-251 of SEQ ID NO:246 (human, UniProt O95150 72-251); test: cell-based or functional assay
T5 chain: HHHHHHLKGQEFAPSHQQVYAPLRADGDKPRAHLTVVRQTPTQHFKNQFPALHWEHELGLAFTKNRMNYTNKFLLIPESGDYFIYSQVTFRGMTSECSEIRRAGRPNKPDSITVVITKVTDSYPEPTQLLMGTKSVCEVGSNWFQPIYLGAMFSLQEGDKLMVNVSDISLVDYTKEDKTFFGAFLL

[6] = target: T3, rat TL1A, soluble, CHO-expressed, …; test: cell-based or functional assay
[7] = target: T6, human TL1A, soluble, CHO-expressed, residues 72-251 of SEQ ID NO:244 with N-terminal His6-tag (human, UniProt O95150 72-251); test: cell-based or functional assay
T6 sequence: T5 chain with R102Q

Kd [1]: 0.0289 nM
t1/2 [1]: 7.45 h
Kd [2]: 0.0637 nM
t1/2 [2]: 4.87 h
Kd [3]: 0.411 nM
t1/2 [3]: 0.25 h
Kd [4]: 62 nM
IC50, NFkB-luciferase reporter [5]: 0.07 nM
IC50, NFkB-luciferase reporter [6]: 63.4 nM
IC50, IFN-g release, average of donors [7]: 6.4 nM
IC50, IFN-g release, donor D1 [7]: 3.4 nM
IC50, IFN-g release, donor D2 [7]: 3.2 nM
IC50, IFN-g release, donor D3 [7]: 5.4 nM
IC50, IFN-g release, donor D4 [7]: 4.7 nM
IC50, IFN-g release, donor D5 [7]: 7 nM
IC50, IFN-g release, donor D6 [7]: 5.4 nM
IC50, IFN-g release, donor D7 [7]: 13 nM
IC50, IFN-g release, donor D8 [7]: 12 nM
IC50, IFN-g release, donor D9 [7]: 6.4 nM
IC50, IFN-g release, donor D10 [7]: 4.1 nM
IC50, IFN-g release, donor D11 [7]: 6.1 nM
IC50, IFN-g release, donor D12 [7]: 6.4 nM
B1: H4H1725P (antibody, human IgG4 S228P, V domains shown)
VH: QVQLVQSGAEVKKPGASVKVSCKASGYTFTGYYMHWVRQAPGQGLEWMGWIKPKSGGTNYVQKFQGRVTMTRDTSINTAYMELNNLKSDDTAVYYCATGGSQDASDFWGQGTMVTVSS
VL: DIQMTQSPSSVSASVGGRVTITCRASQDISIWLAWYQQKPGKAPNLLIYAASSLQSGVPSRFSGSGSGTDFTLTISSLQPEDFATYYCQQADSFPLTFGGGTKVEIK

Kd [1]: 0.437 nM
t1/2 [1]: 2.15 h
Kd [2]: 0.593 nM
t1/2 [2]: 1.62 h
Kd [3]: 0.653 nM
t1/2 [3]: 0.45 h
binding result [4]: no binding (tested: up to 100 nM)
IC50, NFkB-luciferase reporter [5]: 0.53 nM
IC50, NFkB-luciferase reporter [6]: 6.12 nM
IC50, IFN-g release, average of donors [7]: 20 nM
IC50, IFN-g release, donor D1 [7]: 24 nM
IC50, IFN-g release, donor D2 [7]: 4.6 nM
IC50, IFN-g release, donor D3 [7]: 10 nM
IC50, IFN-g release, donor D4 [7]: 13 nM
IC50, IFN-g release, donor D5 [7]: 12 nM
IC50, IFN-g release, donor D6 [7]: 10 nM
IC50, IFN-g release, donor D7 [7]: 31 nM
IC50, IFN-g release, donor D8 [7]: 27 nM
IC50, IFN-g release, donor D9 [7]: 56 nM
IC50, IFN-g release, donor D10 [7]: 12 nM
IC50, IFN-g release, donor D11 [7]: 27 nM
IC50, IFN-g release, donor D12 [7]: 14 nM
B2: H4H1742P (antibody, human IgG4 S228P, V domains shown)
VH: EVQLVESGGGLVQPGGSLRLSCAASGFTFSNYVMNWVRQAPGKGLEWVSVISGSGGSTHYADSVKGRFTISRDNSKDALYLQMNSLRAEDTAVYYCAKGPLEAYYYYNGMDVWGQGTTVTVSS
VL: DIQLTQSPSFLSASVGDRVTITCWASQAISSYLAWYQHKPGRAPKLLIYSTSTLQSGVPSRFSGSGSGTEFTLTISSLQPEDFATYYCQQLNSYPTFGQGTKLEIK
